The values that follow come from paper PMC12046049, “Filamin C dimerisation is regulated by HSPB7” (Nature Communications, 2025).

B1: FLNCd24 (domain 24 of filamin C, residues 2630-2724), wild type (domain or fragment, human)
chain: GSKFSSDASKVVTRGPGLSQAFVGQKNSFTVDCSKAGTNMMMVGVHGPKTPCEEVYVKHMGNRVYNVTYTVKEKGDYILIVKWGDESVPGSPFKVKV
notes: residual Gly-Ser overhang left on the N-terminus after TEV cleavage of the His6 tag; filamin C, human, C-terminal Ig-like domain 24, residues 2630-2724; also called FLNCd24 WT; source: E. coli BL21(DE3), purified (HisTrap, TEV cleavage); not shown: His6, N-terminal, cleaved
B2: FLNCd24^T2677D (phosphomimic) (domain or fragment, human)
chain: GSKFSSDASKVVTRGPGLSQAFVGQKNSFTVDCSKAGTNMMMVGVHGPKDPCEEVYVKHMGNRVYNVTYTVKEKGDYILIVKWGDESVPGSPFKVKV
notes: residual Gly-Ser overhang left on the N-terminus after TEV cleavage of the His6 tag; filamin C, human, domain 24, residues 2630-2724, T2677D; source: E. coli BL21(DE3), purified (HisTrap, TEV cleavage); not shown: His6, N-terminal, cleaved
B5: FLNCd24^Y2683E (phosphomimic) (domain or fragment, human)
chain: GSKFSSDASKVVTRGPGLSQAFVGQKNSFTVDCSKAGTNMMMVGVHGPKTPCEEVEVKHMGNRVYNVTYTVKEKGDYILIVKWGDESVPGSPFKVKV
notes: residual Gly-Ser overhang left on the N-terminus after TEV cleavage of the His6 tag; filamin C, human, domain 24, residues 2630-2724, Y2683E; source: E. coli BL21(DE3), purified (HisTrap, TEV cleavage); not shown: His6, N-terminal, cleaved

In series [1] the target is T1, HSPB7ΔN (residues 78-175 of isoform 2) (human, UniProt Q9UBY9-2 78-175).
T1 construct: residual Gly-Ser overhang left on the N-terminus after TEV cleavage of the His6 tag; HSPB7, human, residues 78-175 of isoform 2 (lacks the N-terminal region); numbers count on: isoform 2 (Q9UBY9-2); source: E. coli BL21(DE3), purified (HisTrap, TEV cleavage, HiTrap Q); not shown: His6, N-terminal, cleaved
Nature of the series: native MS; HSPB7 construct at a range of FLNCd24 concentrations; competitive homo- and hetero-dimerisation fitted as a system of coupled equilibria; 200 mM ammonium acetate pH 6.9. The note with it: both partners purified.

Series [2] deals with the molecule itself. Nature of the series: native MS; FLNCd24 alone, and mixed at a monomer ratio of 1:1 with HSPB7, HSPB7ΔN or HSPB7ACD; 200 mM ammonium acetate pH 6.9 (full-length HSPB7: 1 M).
Series [3] concerns the molecule itself. Briefly: native MS; titration of FLNCd24 (WT or phosphomimic) alone; dimer to monomers; 200 mM ammonium acetate pH 6.9; three technical repeats.
Series [4] has as its target B1. Briefly: crystal structure; HSPB7ACD^C131S and FLNCd24 mixed 4:1, heterodimer isolated by gel filtration in 20 mM HEPES pH 8.0; crystals in 0.1 mM HEPES, 20% w/v PEG 8000, pH 7.0; 2.9 Å. The note with it: both partners purified.
For series [5], the target named is B2. Nature of the series: native MS; HSPB7 construct at a range of FLNCd24 concentrations; competitive homo- and hetero-dimerisation fitted as a system of coupled equilibria; 200 mM ammonium acetate pH 6.9. The note with it: both partners purified.
Series [6] addresses B1. Described as above. The note with it: both partners purified.
For series [7], the target named is B5. The description is as above. The note with it: both partners purified.
Series [8] concerns the target T2, HSPB1ACD (α-crystallin domain of HSPB1) (human).
T2 construct: HSPB1, human, α-crystallin domain; also called ACD of HSPB1
Briefly: native MS; ACD incubated with C-terminal peptide, peptide titration; 200 mM ammonium acetate pH 6.9; acetonitrile added to the source housing; fit with a Hill slope model for 1:1 binding. The note with it: both partners purified.

Series [9] deals with T3, HSPB5ACD (α-crystallin domain of HSPB5) (human).
T3 chain: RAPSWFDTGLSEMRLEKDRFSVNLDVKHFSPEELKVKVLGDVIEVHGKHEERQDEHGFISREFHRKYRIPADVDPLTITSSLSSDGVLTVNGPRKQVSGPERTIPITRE
The series is described as above. The note with it: both partners purified.

Where only a bound is given, the exact number is not on record here.

For B1, the Kd stood at 6.7 ± 1.4 nM in series [1] and 75.9 ± 8.4 nM in series [3]. For the same molecule, the “stoichiometry N” value in series [2] turned out to be 2. With B2, the dissociation constant Kd in series [3] came to 8.5 ± 1 nM.

B3: HSPB7ACD^C131S (domain or fragment)
chain: not shown
notes: residual Gly-Ser overhang left on the N-terminus after TEV cleavage of the His6 tag; HSPB7, human, core α-crystallin domain, residues 78-162 of isoform 2, C131S; numbers count on: isoform 2 (Q9UBY9-2); Mutation made to aid crystallisation; source: E. coli BL21(DE3), purified (HisTrap, TEV cleavage, HiTrap Q); not shown: His6, N-terminal, cleaved
On to B3, for which the binding result in [4] was “binds”.

B4: HSPB7ACD (α-crystallin domain, residues 78-162 of isoform 2) (domain or fragment)
chain: not shown
notes: residual Gly-Ser overhang left on the N-terminus after TEV cleavage of the His6 tag; HSPB7, human, core α-crystallin domain, residues 78-162 of isoform 2; numbers count on: isoform 2 (Q9UBY9-2); source: E. coli BL21(DE3), purified (HisTrap, TEV cleavage, HiTrap Q); not shown: His6, N-terminal, cleaved
For B4, the equilibrium dissociation constant (Kd) is 14.1 ± 0.5 nM in series [5], 3.9 ± 0.9 nM in series [6] and 2.2 ± 0.6 nM in series [7]. In the case of B5, the affinity in series [3], expressed as Kd, was 4050 ± 557 nM.

Molecule ITIPVTFE [HSPB1 C-terminal peptide (cognate peptide of HSPB1ACD)] gave a Kd in series [8] of at most 100000 nM.

B6: HSPB5 C-terminal peptide (cognate peptide of HSPB5ACD) (peptide)
chain: ERTIPITRE
modifications: Limits are not printed. 156-164, containing the IPI motif, is taken by convention from the peptide in the HSPB5 ACD-peptide structure PDB 4M5S; check residues come from the IPI motif, not numbered in
In the case of B6, the dissociation constant (Kd) in [9] is at most 100000 nM.
